Experimental data: US20240041976A1, “COMPOSITION AND USE” (priority 2020, published 2024)

How the values were obtained:
S. haemolyticus 4068 = assay: microbe, parasite or virus in culture; details: 4068; for MIC: individual component
Experimental: (§1) Growth inhibition assays were performed in 96-well microtiter plates as described previously (Chi and Holo, 2018, supra). Briefly, 135 μl of TSB were dispensed in each well of a microtiter plate (according to the number of bacterial strains tested) except in the wells of the first row. The antimicrobials were diluted in TSB to working concentrations in a final volume of 285 μl and dispensed in the wells of the first row. The working concentrations were 100 μg/μl for garvicin KS, 10 μg/μl for micrococcin P1 and 1 mg/ml for penicillin G. From the first row, 150 μl of the antimicrobials were then serially diluted (two-fold dilutions) in a sequential fashion until the last row of the plate. Finally, 15 μl of a fresh O/N culture of each strain were added in the appropriate wells to reach a final volume of 150 μl in each well. The plates were then incubated at 37° C. for 24 h. The growth inhibition was expressed as minimum inhibitory concentration (MIC50), which refers to the minimum concentration of the antimicrobial needed to reduce at least 50% of the microbial growth compared to the untreated control. The MIC50 was assessed by optical density readings at 600 nm (O.D.600).
(§2) Synergistic interactions between antimicrobials were determined using the fractional inhibition concentration (FIC). The FIC values were calculated as follows: the sum of the FIC =FICa+FICb+FICc, where the FICa means MIC of A in combination/MIC of A alone, FICb means MIC of B in combination/MIC of B, and FICc means MIC of C in combination/MIC of C alone. Effects were considered as synergistic if FIC was ≤0.5 for two components mixture and ≤0.75 for three components mixture.
(§3) Bacteriocins and antimicrobial assays. […] These bacteriocins were all solubilized in 0.1% (vol/vol) trifluoracetic acid (TFA; Sigma-Aldrich). […] Cell growth inhibition assays and antimicrobial synergy determination was performed in line with Example 1.
(§4) To investigate whether there was synergy between the three bacteriocins (K1-EJ, GarKS and MP1), a checkboard antimicrobial assay was performed. The selected strains were treated for 5, 24 and 48 h with a range of concentrations of K1-EJ, GarKS and MP1 alone or in different combinations.

S. haemolyticus 4069 = assay: microbe, parasite or virus in culture; details: 4069; for MIC: individual component
Experimental: as §1, §2, §3, §4

S. haemolyticus 4070 = assay: microbe, parasite or virus in culture; details: 4070; for MIC: individual component
Experimental: as §1, §2, §3, §4

S. haemolyticus 4071 = assay: microbe, parasite or virus in culture; details: 4071; for MIC: individual component
Experimental: as §1, §2, §3, §4

S. haemolyticus 4073 = assay: microbe, parasite or virus in culture; details: 4073; for MIC: individual component
Experimental: as §1, §2, §3, §4

MRSA ATCC 33521-lux = assay: Agar plate spot assay, resistance development (FIG. 4); type: cell-based, Staphylococcus aureus; details: up to 72 h incubation at 37° C.
Experimental: Pure GarKS and PenG each at 50 μg, MP1 at 0.1 μg, were applied at the indicated spots. The pictures of the plates were taken after 24, 48 and 72 h of incubation at 37° C. Sections of the inhibition zones on the right show resistance development seen as small white dots (in the inhibition zones of GarKS and MP1).

B1: Garvicin KS: three-peptide leaderless bacteriocin (GarA, GarB, GarC; SEQ ID NO:6-8), peptides synthesized (peptide, listed as Lactococcus garvieae)
chain 1: MGAIIKAGAKIVGKGVLGGGASWLGWNVGEKIWK
chain 2: MGAIIKAGAKIIGKGLLGGAAGGATYGGLKKIFG
chain 3: MGAIIKAGAKIVGKGALTGGGVWLAEKLFGGK
MIC of the component in combination (S. haemolyticus 4068; 5 h, GarKS + MP1): 0.2 µg/mL
MIC of the component in combination (S. haemolyticus 4068; 5 h, K1-EJ + GarKS): 0.83 µg/mL
MIC of the component in combination (S. haemolyticus 4068; 5 h, K1-EJ + GarKS + MP1): 0.32 µg/mL
MIC (S. haemolyticus 4068; 5 h): 6.5 µg/mL
MIC of the component in combination (S. haemolyticus 4068; 24 h, GarKS + MP1): 0.32 µg/mL
MIC of the component in combination (S. haemolyticus 4068; 24 h, K1-EJ + GarKS): 3.1 µg/mL
MIC of the component in combination (S. haemolyticus 4068; 24 h, K1-EJ + GarKS + MP1): 0.78 µg/mL
MIC (S. haemolyticus 4068; 24 h): 24 µg/mL
MIC of the component in combination (S. haemolyticus 4068; 48 h, GarKS + MP1): 0.68 µg/mL
MIC of the component in combination (S. haemolyticus 4068; 48 h, K1-EJ + GarKS): 6 µg/mL
MIC of the component in combination (S. haemolyticus 4068; 48 h, K1-EJ + GarKS + MP1): 2.8 µg/mL
MIC (S. haemolyticus 4068; 48 h): 25 µg/mL
MIC of the component in combination (S. haemolyticus 4069; 5 h, GarKS + MP1): 1.6 µg/mL
MIC of the component in combination (S. haemolyticus 4069; 5 h, K1-EJ + GarKS): 1.4 µg/mL
MIC of the component in combination (S. haemolyticus 4069; 5 h, K1-EJ + GarKS + MP1): 0.68 µg/mL
MIC (S. haemolyticus 4069; 5 h): 3.3 µg/mL
MIC of the component in combination (S. haemolyticus 4069; 24 h, GarKS + MP1): 25 µg/mL
MIC of the component in combination (S. haemolyticus 4069; 24 h, K1-EJ + GarKS): 6 µg/mL
MIC of the component in combination (S. haemolyticus 4069; 24 h, K1-EJ + GarKS + MP1): 3.3 µg/mL
MIC (S. haemolyticus 4069; 24 h): 13 µg/mL
MIC of the component in combination (S. haemolyticus 4069; 48 h, GarKS + MP1): 50 µg/mL
MIC of the component in combination (S. haemolyticus 4069; 48 h, K1-EJ + GarKS): 6.5 µg/mL
MIC of the component in combination (S. haemolyticus 4069; 48 h, K1-EJ + GarKS + MP1): 5.8 µg/mL
MIC (S. haemolyticus 4069; 48 h): 26 µg/mL
MIC of the component in combination (S. haemolyticus 4070; 5 h, GarKS + MP1): 0.2 µg/mL
MIC of the component in combination (S. haemolyticus 4070; 5 h, K1-EJ + GarKS): 0.72 µg/mL
MIC of the component in combination (S. haemolyticus 4070; 5 h, K1-EJ + GarKS + MP1): 0.32 µg/mL
MIC (S. haemolyticus 4070; 5 h): 12 µg/mL
MIC of the component in combination (S. haemolyticus 4070; 24 h, GarKS + MP1): 3.3 µg/mL
MIC of the component in combination (S. haemolyticus 4070; 24 h, K1-EJ + GarKS): 3.3 µg/mL
MIC of the component in combination (S. haemolyticus 4070; 24 h, K1-EJ + GarKS + MP1): 2.8 µg/mL
MIC (S. haemolyticus 4070; 24 h): 48 µg/mL
MIC of the component in combination (S. haemolyticus 4070; 48 h, GarKS + MP1): 6.3 µg/mL
MIC of the component in combination (S. haemolyticus 4070; 48 h, K1-EJ + GarKS): 6.3 µg/mL
MIC of the component in combination (S. haemolyticus 4070; 48 h, K1-EJ + GarKS + MP1): 5.8 µg/mL
MIC (S. haemolyticus 4070; 48 h): 51 µg/mL
MIC of the component in combination (S. haemolyticus 4071; 5 h, GarKS + MP1): 0.68 µg/mL
MIC of the component in combination (S. haemolyticus 4071; 5 h, K1-EJ + GarKS): 1.6 µg/mL
MIC of the component in combination (S. haemolyticus 4071; 5 h, K1-EJ + GarKS + MP1): 0.72 µg/mL
MIC (S. haemolyticus 4071; 5 h): 12.5 µg/mL
MIC of the component in combination (S. haemolyticus 4071; 24 h, GarKS + MP1): 6.3 µg/mL
MIC of the component in combination (S. haemolyticus 4071; 24 h, K1-EJ + GarKS): 12 µg/mL
MIC of the component in combination (S. haemolyticus 4071; 24 h, K1-EJ + GarKS + MP1): 1.6 µg/mL
MIC (S. haemolyticus 4071; 24 h): 51 µg/mL
MIC of the component in combination (S. haemolyticus 4071; 48 h, GarKS + MP1): 6.5 µg/mL
MIC of the component in combination (S. haemolyticus 4071; 48 h, K1-EJ + GarKS): 24 µg/mL
MIC of the component in combination (S. haemolyticus 4071; 48 h, K1-EJ + GarKS + MP1): 3.3 µg/mL
MIC (S. haemolyticus 4071; 48 h): 100 µg/mL
MIC of the component in combination (S. haemolyticus 4073; 5 h, GarKS + MP1): 0.2 µg/mL
MIC of the component in combination (S. haemolyticus 4073; 5 h, K1-EJ + GarKS): 1.7 µg/mL
MIC of the component in combination (S. haemolyticus 4073; 5 h, K1-EJ + GarKS + MP1): 0.33 µg/mL
MIC (S. haemolyticus 4073; 5 h): 12.5 µg/mL
MIC of the component in combination (S. haemolyticus 4073; 24 h, GarKS + MP1): 0.73 µg/mL
MIC of the component in combination (S. haemolyticus 4073; 24 h, K1-EJ + GarKS): 6.3 µg/mL
MIC of the component in combination (S. haemolyticus 4073; 24 h, K1-EJ + GarKS + MP1): 0.78 µg/mL
MIC (S. haemolyticus 4073; 24 h): 51 µg/mL
MIC of the component in combination (S. haemolyticus 4073; 48 h, GarKS + MP1): 0.83 µg/mL
MIC of the component in combination (S. haemolyticus 4073; 48 h, K1-EJ + GarKS): 12 µg/mL
MIC of the component in combination (S. haemolyticus 4073; 48 h, K1-EJ + GarKS + MP1): 1.6 µg/mL
MIC (S. haemolyticus 4073; 48 h): 51 µg/mL
resistance development on agar plates (MRSA ATCC 33521-lux): resistant colonies of MRSA appeared within the inhibition zones
